Among the data in publication PMC12102759 (2025) are screen value values, retold here.

B1: AMOTL2 peptide 64-79 (Angiomotin-like protein 2), 16-mer library wild type / TNKS ANK (TNKS 12 ANK repeats, residues 174-649) (parent complex)
chain 1: QVLQQATRQEPQGQEH
chain 2: TGVPAVSGALRELLEACRNGDVSRVKRLVDAANVNAKDMAGRKSSPLHFAAGFGRKDVVEHLLQMGANVHARDDGGLIPLHNACSFGHAEVVSLLLCQGADPNARDNWNYTPLHEAAIKGKIDVCIVLLQHGADPNIRNTDGKSALDLADPSAKAVLTGEYKKDELLEAARSGNEEKLMALLTPLNVNCHASDGRKSTPLHLAAGYNRVRIVQLLLQHGADVHAKDKGGLVPLHNACSYGHYEVTELLLKHGACVNAMDLWQFTPLHEAASKNRVEVCSLLLSHGADPTLVNCHGKSAVDMAPTPELRERLTYEFKGHSLLQAAREADLAKVKKTLALEIINFKQPQSHETALHCAVASLHPKRKQVTELLLRKGANVNEKNKDFMTPLHVAAERAHNDVMEVLHKHGAKMNALDTLGQTALHRAALAGHLQTCRLLLSYGSDPSIISLQGFTAAQMGNEAVQQILSESTPIRTSD

The experiment covers variants of B1. The experiment in a line: proteomic peptide phage display deep mutational scan (ProP-PD DMS): M13 P8 16-mer library selected against immobilised GST-tagged bait for four days (rounds), NGS of the eluted pools per day and pseudo-replica; bait immobilised on MaxiSorp plates (10 µg), library pre-cleared on GST, 2 h binding at 4 °C, five washes; one round per day, days 1-4; value from days 2 and 3.
As to chain 1 Q12T, the screen value was 0.0005 average fractional NGS count over selection days 2 and 3 (reads of this peptide / all reads for the bait, averaged over ….

Take chain 1 Q12Y: the screen value is 0.0011 average fractional NGS count over selection days 2 and 3 (reads of this peptide / all reads for the bait, averaged over ….

As for chain 1 Q12E, the screen value is 0.000439 average fractional NGS count over selection days 2 and 3 (reads of this peptide / all reads for the bait, averaged over ….

Take chain 1 Q12D: the screen value was 0.000551 average fractional NGS count over selection days 2 and 3 (reads of this peptide / all reads for the bait, averaged over ….

Regarding chain 1 Q12N, the screen value is 0.000885 average fractional NGS count over selection days 2 and 3 (reads of this peptide / all reads for the bait, averaged over ….

For the variant chain 1 Q12S, the screen value was 0.000155 average fractional NGS count over selection days 2 and 3 (reads of this peptide / all reads for the bait, averaged over ….

For the variant chain 1 Q12L, the screen value is 0.00049 average fractional NGS count over selection days 2 and 3 (reads of this peptide / all reads for the bait, averaged over ….

chain 1 Q12M: the screen value is 0.00046 average fractional NGS count over selection days 2 and 3 (reads of this peptide / all reads for the bait, averaged over ….

As for chain 1 Q12I, the screen value was 0.00433 average fractional NGS count over selection days 2 and 3 (reads of this peptide / all reads for the bait, averaged over ….

Turning to chain 1 Q12G, the screen value was 0.000392 average fractional NGS count over selection days 2 and 3 (reads of this peptide / all reads for the bait, averaged over ….

Consider chain 1 Q14N, for which the screen value is 0.00223 average fractional NGS count over selection days 2 and 3 (reads of this peptide / all reads for the bait, averaged over ….

As to chain 1 Q14D, the screen value is 0.00025 average fractional NGS count over selection days 2 and 3 (reads of this peptide / all reads for the bait, averaged over ….

In the case of chain 1 Q14H, the screen value is 0.00069 average fractional NGS count over selection days 2 and 3 (reads of this peptide / all reads for the bait, averaged over ….

With chain 1 Q14K, the screen value is 0.000473 average fractional NGS count over selection days 2 and 3 (reads of this peptide / all reads for the bait, averaged over ….

With chain 1 Q14S, the screen value is 0.00613 average fractional NGS count over selection days 2 and 3 (reads of this peptide / all reads for the bait, averaged over ….

With chain 1 Q14W, the screen value is 0.00254 average fractional NGS count over selection days 2 and 3 (reads of this peptide / all reads for the bait, averaged over ….

Take chain 1 Q14R: the screen value is 0.0014 average fractional NGS count over selection days 2 and 3 (reads of this peptide / all reads for the bait, averaged over ….

Regarding chain 1 Q14E, the screen value is 0.000547 average fractional NGS count over selection days 2 and 3 (reads of this peptide / all reads for the bait, averaged over ….

Consider chain 1 Q14L, for which the screen value was 0.000371 average fractional NGS count over selection days 2 and 3 (reads of this peptide / all reads for the bait, averaged over ….

On to chain 1 Q14T, for which the screen value was 0.00286 average fractional NGS count over selection days 2 and 3 (reads of this peptide / all reads for the bait, averaged over ….

On to chain 1 Q14I, for which the screen value is 0.002 average fractional NGS count over selection days 2 and 3 (reads of this peptide / all reads for the bait, averaged over ….

As for chain 1 A6R, the screen value is 0.000251 average fractional NGS count over selection days 2 and 3 (reads of this peptide / all reads for the bait, averaged over ….

As for chain 1 A6H, the screen value is 0.00168 average fractional NGS count over selection days 2 and 3 (reads of this peptide / all reads for the bait, averaged over ….

As to chain 1 A6I, the screen value was 0.000647 average fractional NGS count over selection days 2 and 3 (reads of this peptide / all reads for the bait, averaged over ….

Regarding chain 1 A6G, the screen value was 0.000155 average fractional NGS count over selection days 2 and 3 (reads of this peptide / all reads for the bait, averaged over ….

On to chain 1 A6W, for which the screen value is 0.000677 average fractional NGS count over selection days 2 and 3 (reads of this peptide / all reads for the bait, averaged over ….

On to chain 1 R8A, for which the screen value is 0.000176 average fractional NGS count over selection days 2 and 3 (reads of this peptide / all reads for the bait, averaged over ….

chain 1 H16V: the screen value was 0.000284 average fractional NGS count over selection days 2 and 3 (reads of this peptide / all reads for the bait, averaged over ….

Turning to chain 1 H16S, the screen value was 0.000142 average fractional NGS count over selection days 2 and 3 (reads of this peptide / all reads for the bait, averaged over ….

On to chain 1 H16L, for which the screen value was 0.000215 average fractional NGS count over selection days 2 and 3 (reads of this peptide / all reads for the bait, averaged over ….

For the variant chain 1 H16D, the screen value was 0.000297 average fractional NGS count over selection days 2 and 3 (reads of this peptide / all reads for the bait, averaged over ….

Take chain 1 H16P: the screen value was 0.000313 average fractional NGS count over selection days 2 and 3 (reads of this peptide / all reads for the bait, averaged over ….

As to chain 1 H16W, the screen value is 0.000565 average fractional NGS count over selection days 2 and 3 (reads of this peptide / all reads for the bait, averaged over ….

Turning to chain 1 V2L, the screen value is 0.0017 average fractional NGS count over selection days 2 and 3 (reads of this peptide / all reads for the bait, averaged over ….

As for chain 1 V2H, the screen value was 0.00146 average fractional NGS count over selection days 2 and 3 (reads of this peptide / all reads for the bait, averaged over ….

Consider chain 1 V2F, for which the screen value is 0.000314 average fractional NGS count over selection days 2 and 3 (reads of this peptide / all reads for the bait, averaged over ….

Consider chain 1 V2Q, for which the screen value was 0.000414 average fractional NGS count over selection days 2 and 3 (reads of this peptide / all reads for the bait, averaged over ….

Regarding chain 1 V2G, the screen value is 0.000586 average fractional NGS count over selection days 2 and 3 (reads of this peptide / all reads for the bait, averaged over ….

On to chain 1 V2Y, for which the screen value was 0.000153 average fractional NGS count over selection days 2 and 3 (reads of this peptide / all reads for the bait, averaged over ….

Regarding chain 1 V2P, the screen value was 0.000487 average fractional NGS count over selection days 2 and 3 (reads of this peptide / all reads for the bait, averaged over ….

As to chain 1 V2A, the screen value was 0.00302 average fractional NGS count over selection days 2 and 3 (reads of this peptide / all reads for the bait, averaged over ….

For chain 1 V2W, the screen value is 0.00102 average fractional NGS count over selection days 2 and 3 (reads of this peptide / all reads for the bait, averaged over ….

As to chain 1 V2N, the screen value is 0.00035 average fractional NGS count over selection days 2 and 3 (reads of this peptide / all reads for the bait, averaged over ….

As for chain 1 E10M, the screen value was 0.00083 average fractional NGS count over selection days 2 and 3 (reads of this peptide / all reads for the bait, averaged over ….

Regarding chain 1 E10V, the screen value was 0.000245 average fractional NGS count over selection days 2 and 3 (reads of this peptide / all reads for the bait, averaged over ….

Regarding chain 1 E10H, the screen value was 0.000153 average fractional NGS count over selection days 2 and 3 (reads of this peptide / all reads for the bait, averaged over ….

For chain 1 E10A, the screen value was 0.00157 average fractional NGS count over selection days 2 and 3 (reads of this peptide / all reads for the bait, averaged over ….

With chain 1 E10F, the screen value was 0.000339 average fractional NGS count over selection days 2 and 3 (reads of this peptide / all reads for the bait, averaged over ….

Turning to chain 1 Q5E, the screen value was 0.000474 average fractional NGS count over selection days 2 and 3 (reads of this peptide / all reads for the bait, averaged over ….

For the variant chain 1 Q5K, the screen value is 0.000455 average fractional NGS count over selection days 2 and 3 (reads of this peptide / all reads for the bait, averaged over ….

Consider chain 1 Q5S, for which the screen value is 0.00183 average fractional NGS count over selection days 2 and 3 (reads of this peptide / all reads for the bait, averaged over ….

Regarding chain 1 Q5F, the screen value is 0.00178 average fractional NGS count over selection days 2 and 3 (reads of this peptide / all reads for the bait, averaged over ….

With chain 1 Q5V, the screen value is 0.00207 average fractional NGS count over selection days 2 and 3 (reads of this peptide / all reads for the bait, averaged over ….

On to chain 1 Q9W, for which the screen value is 0.000813 average fractional NGS count over selection days 2 and 3 (reads of this peptide / all reads for the bait, averaged over ….

With chain 1 Q9V, the screen value was 0.000414 average fractional NGS count over selection days 2 and 3 (reads of this peptide / all reads for the bait, averaged over ….

Regarding chain 1 Q9A, the screen value is 0.00163 average fractional NGS count over selection days 2 and 3 (reads of this peptide / all reads for the bait, averaged over ….

chain 1 E15F: the screen value was 0.000795 average fractional NGS count over selection days 2 and 3 (reads of this peptide / all reads for the bait, averaged over ….

Take chain 1 E15V: the screen value is 0.00435 average fractional NGS count over selection days 2 and 3 (reads of this peptide / all reads for the bait, averaged over ….

Turning to chain 1 E15Q, the screen value was 0.000335 average fractional NGS count over selection days 2 and 3 (reads of this peptide / all reads for the bait, averaged over ….

With chain 1 E15M, the screen value was 0.000421 average fractional NGS count over selection days 2 and 3 (reads of this peptide / all reads for the bait, averaged over ….

Consider chain 1 E15T, for which the screen value was 0.00184 average fractional NGS count over selection days 2 and 3 (reads of this peptide / all reads for the bait, averaged over ….

chain 1 E15R: the screen value was 0.00165 average fractional NGS count over selection days 2 and 3 (reads of this peptide / all reads for the bait, averaged over ….

With chain 1 E15L, the screen value was 0.00245 average fractional NGS count over selection days 2 and 3 (reads of this peptide / all reads for the bait, averaged over ….

Regarding chain 1 E15N, the screen value is 0.00037 average fractional NGS count over selection days 2 and 3 (reads of this peptide / all reads for the bait, averaged over ….

Consider chain 1 E15Y, for which the screen value is 0.0003 average fractional NGS count over selection days 2 and 3 (reads of this peptide / all reads for the bait, averaged over ….

As to chain 1 E15A, the screen value is 0.000599 average fractional NGS count over selection days 2 and 3 (reads of this peptide / all reads for the bait, averaged over ….

Turning to chain 1 E15S, the screen value was 0.00106 average fractional NGS count over selection days 2 and 3 (reads of this peptide / all reads for the bait, averaged over ….

As to chain 1 G13R, the screen value was 0.000155 average fractional NGS count over selection days 2 and 3 (reads of this peptide / all reads for the bait, averaged over ….

On to chain 1 Q4H, for which the screen value was 0.000314 average fractional NGS count over selection days 2 and 3 (reads of this peptide / all reads for the bait, averaged over ….

Regarding chain 1 Q4D, the screen value is 0.000668 average fractional NGS count over selection days 2 and 3 (reads of this peptide / all reads for the bait, averaged over ….

For the variant chain 1 Q4K, the screen value was 0.000138 average fractional NGS count over selection days 2 and 3 (reads of this peptide / all reads for the bait, averaged over ….

With chain 1 Q4P, the screen value was 0.000712 average fractional NGS count over selection days 2 and 3 (reads of this peptide / all reads for the bait, averaged over ….

As to chain 1 Q4N, the screen value is 0.00124 average fractional NGS count over selection days 2 and 3 (reads of this peptide / all reads for the bait, averaged over ….

On to chain 1 Q4I, for which the screen value was 0.0028 average fractional NGS count over selection days 2 and 3 (reads of this peptide / all reads for the bait, averaged over ….

On to chain 1 Q4L, for which the screen value is 0.000267 average fractional NGS count over selection days 2 and 3 (reads of this peptide / all reads for the bait, averaged over ….
